Assay results as given in paper PMC3876282.

Biological target: AvrPtoB BAK1-interacting domain, 250-359 (UniProt Q8RSY1)
Assay: gel filtration co-migration, Coomassie SDS-PAGE
Conditions: reference: wild-type BAK1-KD

Row | Substance | binding against the reference (sites T450) | binding against the reference (sites T449)
1 | BAK1 kinase domain, 250-591 (from UniProt Q94F62) BAK1-KD T450A | lost | 
2 | BAK1 kinase domain, 250-591 (from UniProt Q94F62) BAK1-KD T449A |  | lost
